Measurements reported in patent publication US20090252683A1 (Amgen, published 2009).
No end group written: not given here. *: point of attachment. Biotin = O=C1N[C@H]2[C@H](CS[C@H]2CCCCC(=O)*)N1; linker = not defined here

Columns and labels:
[1] = biological target: T1, human EpCAM antigen on Kato III cells or human EpCAM transfected CHO cells (human, UniProt P16422 24-265); assay: cell-based or functional assay
T1 sequence: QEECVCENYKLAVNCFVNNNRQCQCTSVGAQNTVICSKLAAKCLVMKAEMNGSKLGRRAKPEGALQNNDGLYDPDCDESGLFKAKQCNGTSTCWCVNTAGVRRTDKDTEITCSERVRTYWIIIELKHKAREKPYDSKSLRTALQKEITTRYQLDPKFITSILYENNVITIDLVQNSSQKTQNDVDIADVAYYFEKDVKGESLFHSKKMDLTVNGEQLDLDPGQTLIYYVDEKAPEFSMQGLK

[2] = biological target: cynomolgus CD3 antigen on cynomolgus PBMC / macaque T cells (Macaca fascicularis (cynomolgus), UniProt Q95LI5 22-117; Q95LI7 23-110; Q95LI8 22-103); assay: cell-based or functional assay
[3] = biological target: T2, EFSELEQSGYYVC-biotin (human); assay: dot blot, 75 µg peptide on nitrocellulose, 3 µg/ml antibody
T2 construct: also called 13mer peptide of human CD3 epsilon, biotinylated C-terminally; peptide (2)
T2 peptide: EFSELEQSGYYVC-biotin
Description: (§1) To verify the epitope of the human-like cross-species specific anti-CD3 antibody fragment described in Example 16 on human CD3 epsilon, the identified binding region as determined in Experiment 18 was further analyzed by a dot-blotting assay using a 13mer peptide covering the defined binding area of amino acid residues “FSELE” on human CD3 epsilon. This peptide comprises the amino acid sequence “[…]” (SEQ ID NO. 195) of human CD3 epsilon. The peptide exists in two forms and is either biotinylated N- or C-terminally. In case of the N-terminal labelling, a short linker connects the peptide with the biotin. As described in Example 18, the antibody fragment was converted to a murine IgG format with a murine gammal heavy chain comprising the VH region as shown in SEQ ID NO. 110 and a kappa light chain comprising the VL region as shown in SEQ ID NO. 168. The dot blotting was performed as follows. The Minifold I Spot Blot System from Schleicher & Schuell was used for immobilizing the peptides on a nitrocellulose membrane (Protran BA 85, 0.45 μm). 75 μg of each peptide in 100 μl TBS were filtered through the membrane using vacuum. After the filtration step the membrane was blocked with 1×TBS/1% (w/v) blocking reagent (BM Chemiluminescence Blotting Substrate (POD) of Roche Diagnostics GmbH) for 2 h. […]

[4] = biological target: T3, biotin-linker-EFSELEQSGYYVC (human, reading uncertain; also: short linker, not given here, printed as biotin-linker-EFSELEQSGYYVC); assay: as above
T3 construct: also called 13mer peptide of human CD3 epsilon, biotinylated N-terminally; peptide (1)
T3 peptide: {Biotin-linker}-EFSELEQSGYYVC
Description: as §1

[5] = biological target: T1, human EpCAM antigen on Kato III cells …; assay: FACS, Kato III cells (FIG. 8A), anti-His detection
Description: FIG. 8: FACS assay for binding of 2G8LH×SEQ ID NO. 12, 2G8LH×SEQ ID NO. 10, 2G8LH×SEQ ID NO. 16, 2G8LH×SEQ ID NO. 14, 2G8HL×SEQ ID NO. 12, 2G8HL×SEQ ID NO. 10, 2G8HL×SEQ ID NO. 16 and 2G8HL×SEQ ID NO. 14 on Kato III (FIG. 8A) cells or cynomolgus EpCAM transfected CHO cells (FIG. 8B) and HPB-ALL cells. Antigen binding was clearly detectable for the anti EpCAM specificities as well as for the anti CD3 specificities. As a negative control for binding to cynomolgus EpCAM, the 5-10LH×SEQ ID NO.
Binding of the bifunctional constructs from cell culture supernatants or binding of purified bifunctional constructs to the human EpCAM antigen on Kato III cells or cynomolgus EpCAM transfected CHO cells and to the CD3 antigen on HPB-ALL cells was tested using an FACS assay. For that purpose 2.5×10⁵ cells were incubated with 50 μl supernatant or with 5 μg/ml of the purified constructs in 50 μl PBS with 2% FCS. The binding of the constructs was detected with an anti-His antibody (Penta-His Antibody, BSA free, obtained from Qiagen GmbH, Hilden, FRG) at 2 μg/ml in 50 μl PBS with 2% FCS. […] The samples were measured on a FACSscan (BD biosciences, Heidelberg, FRG). Antigen binding was clearly detectable for the anti EpCAM specificities as well as for the anti CD3 specificities (see FIG. 8). As a negative control for binding to cynomolgus EpCAM, the 5-10LH×SEQ ID NO. […] The 5-10LH part only binds to human EpCAM.

[6] = biological target: T4, cynomolgus EpCAM antigen on transfected CHO cells (cynomolgus, UniProt Q1WER1 24-265 (rhesus entry)); assay: cell-based or functional assay
T4 sequence: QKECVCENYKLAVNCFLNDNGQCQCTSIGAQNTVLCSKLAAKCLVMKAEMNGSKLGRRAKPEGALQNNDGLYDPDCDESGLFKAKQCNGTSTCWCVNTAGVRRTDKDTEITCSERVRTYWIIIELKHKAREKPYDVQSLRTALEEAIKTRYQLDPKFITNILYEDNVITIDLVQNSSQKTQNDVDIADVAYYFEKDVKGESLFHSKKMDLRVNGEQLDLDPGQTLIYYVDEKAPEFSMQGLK

Sequence of cynomolgus CD3 antigen on cynomolgus PBMC / macaque T cells (Q95LI5 22-117, chain 1 of 3): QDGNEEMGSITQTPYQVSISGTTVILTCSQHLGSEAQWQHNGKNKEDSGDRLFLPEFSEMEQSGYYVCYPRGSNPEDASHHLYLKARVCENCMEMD
Sequence of cynomolgus CD3 antigen on cynomolgus PBMC / macaque T cells (Q95LI7 23-110, chain 2 of 3): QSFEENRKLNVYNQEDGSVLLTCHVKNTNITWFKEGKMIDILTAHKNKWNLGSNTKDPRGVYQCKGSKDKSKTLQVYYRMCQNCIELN
Sequence of cynomolgus CD3 antigen on cynomolgus PBMC / macaque T cells (Q95LI8 22-103, chain 3 of 3): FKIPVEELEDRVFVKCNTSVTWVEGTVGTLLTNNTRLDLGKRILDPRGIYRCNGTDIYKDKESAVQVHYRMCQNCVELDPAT

B1: 5-10LH×SEQ ID NO. 14 bispecific single chain antibody (bispecific antibody)
chain: ELVMTQSPSSLTVTAGEKVTMSCKSSQSLLNSGNQKNYLTWYQQKPGQPPKLLIYWASTRESGVPDRFTGSGSGTDFTLTISSVQAEDLAVYYCQNDYSYPLTFGAGTKLEIKGGGGSGGGGSGGGGSEVQLLEQSGAELVRPGTSVKISCKASGYAFTNYWLGWVKQRPGHGLEWIGDIFPGSGNIHYNEKFKGKATLTADKSSSTAYMQLSSLTFEDSAVYFCARLRNWDEPMDYWGQGTTVTVSSGGGGSQVQLQQSGAELARPGASVKMSCKASGYTFTRSTMHWVKQRPGQGLEWIGYINPSSAYTNYNQKFKDKATLTADKSSSTAYMQLSSLTSEDSAVYYCASPQVHYDYNGFPYWGQGTLVTVSAGGGGSGGGGSGGGGSQVVLTQSPAIMSAFPGEKVTMTCSASSSVSYMNWYQQKSGTSPKRWIYDSSKLASGVPARFSGSGSGTSYSLTISSMETEDAATYYCQQWSRNPPTFGGGTKLQITHHHHHH
EC50 (half maximal killing), FACS-based cytotoxicity, Kato III target cells, human PBMC effector cells [1]: 0.0013 ng/mL
EC50 (half maximal killing), FACS-based cytotoxicity, Kato III target cells, cynomolgus PBMC effector cells [2]: 0.087 ng/mL

B2: 5-10LH×SEQ ID NO. 12 bispecific single chain antibody (bispecific antibody)
chain: ELVMTQSPSSLTVTAGEKVTMSCKSSQSLLNSGNQKNYLTWYQQKPGQPPKLLIYWASTRESGVPDRFTGSGSGTDFTLTISSVQAEDLAVYYCQNDYSYPLTFGAGTKLEIKGGGGSGGGGSGGGGSEVQLLEQSGAELVRPGTSVKISCKASGYAFTNYWLGWVKQRPGHGLEWIGDIFPGSGNIHYNEKFKGKATLTADKSSSTAYMQLSSLTFEDSAVYFCARLRNWDEPMDYWGQGTTVTVSSGGGGSQAVVTQESALTTSPGETVTLTCRSSTGAVTTSNYANWVQEKPDHLFTGLIGGTNKRAPGVPARFSGSLIGDKAALTITGAQTEDEAIYFCALWYSNLWVFGGGTKLTVLGGGGSGGGGSGGGGSEVKLLESGGGLVQPKGSLKLSCAASGFTFNTYAMNWVRQAPGKGLEWVARIRSKYNNYATYYADSVKDRFTISRDDSQSILYLQMNNLKTEDTAMYYCVRHGNFGNSYVSWFAYWGQGTLVTVSAHHHHHH
EC50 (half maximal killing), FACS-based cytotoxicity, Kato III target cells, human PBMC effector cells [1]: 0.0015 ng/mL
EC50 (half maximal killing), FACS-based cytotoxicity, Kato III target cells, cynomolgus PBMC effector cells [2]: 0.069 ng/mL

B3: cross-species specific anti-CD3 antibody (murine IgG1 comprising the VH chain shown in SEQ ID NO. 110 and the VL chain shown in SEQ ID NO. 168) (antibody, V domains shown)
VH: EVQLLESGGGLVQPGGSLKLSCAASGFTFNTYAMNWVRQAPGKGLEWVARIRSKYNNYATYYADSVKDRFTISRDDSKNTAYLQMNNLKTEDTAVYYCVRHGNFGNSYVSWFAYWGQGTLVTVSS
VL: ELVVTQEPSLTVSPGGTVTLTCRSSTGAVTTSNYANWVQQKPGQAPRGLIGGTNKRAPGTPARFSGSLLGGKAALTLSGVQPEDEAEYYCALWYSNLWVFGGGTKLTVL
notes: full IgG with a murine gamma1 heavy chain and a kappa light chain; also called human-like cross-species specific anti-CD3 antibody; cross-species specific anti-CD3 IgG1 antibody
binding result [3]: binds
binding result [4]: binds

B4: 2G8HL×SEQ ID NO. 12 bispecific single chain antibody (bispecific antibody)
chain: EVQLQQSGAELVRSGASVKLSCTASGFNIKDYYLHWVKQRPEQGLEWIAWIDLENGDIKYAPKFQGKATITADTSSNTAYLQLSSLTSEDTAVYYCNPYYYGSNYDYAMDYWGQGTSVTVSSGGGGSGGGGSGGGGSDVVMTQTPLTLSVTIGQPASISCKSSQSLLYSNGKTYLNWILQRPGQSPKRLIYLVSKLDSGVPDRFTGSGSGTDFTLKISRVEAEDLGVYYCVQGTHFPLTFGAGTKLELKSGGGGSQAVVTQESALTTSPGETVTLTCRSSTGAVTTSNYANWVQEKPDHLFTGLIGGTNKRAPGVPARFSGSLIGDKAALTITGAQTEDEAIYFCALWYSNLWVFGGGTKLTVLGGGGSGGGGSGGGGSEVKLLESGGGLVQPKGSLKLSCAASGFTFNTYAMNWVRQAPGKGLEWVARIRSKYNNYATYYADSVKDRFTISRDDSQSILYLQMNNLKTEDTAMYYCVRHGNFGNSYVSWFAYWGQGTLVTVSAHHHHHH
binding result [5]: binds
EC50 (half maximal killing), FACS-based cytotoxicity, cynomolgus EpCAM transfected CHO target cells, cynomolgus PBMC effector cells [6]: 60.4 ng/mL
EC50 (half maximal killing), FACS-based cytotoxicity, cynomolgus EpCAM transfected CHO target cells, human PBMC effector cells [6]: 3.64 ng/mL
EC50 (half maximal killing), FACS-based cytotoxicity, cynomolgus EpCAM transfected CHO target cells, cynomolgus PBMC effector cells [2]: 60.4 ng/mL
